Measured values: paper PMC12349009 (2025)
Numbering of substitutions follows the chain as printed.

Legend:
[1] = target: T1, soluble recombinant NKp65 ectodomain with proline at position 131 (NKp65-Pro131) (human, UniProt D3W0D1 63-207, biotin on the N-terminal BirA tag (enzymatic, BirA ligase)); assay: SPR; KD1 of bivalent fit, multi-cycle kinetics
T1 chain: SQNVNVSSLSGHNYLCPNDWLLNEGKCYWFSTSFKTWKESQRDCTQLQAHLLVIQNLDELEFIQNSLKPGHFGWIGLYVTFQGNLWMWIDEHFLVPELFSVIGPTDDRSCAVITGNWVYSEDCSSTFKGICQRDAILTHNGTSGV

[2] = target: T2, soluble recombinant NKp65 ectodomain with threonine at position 131 (NKp65-Thr131) (human, UniProt D3W0D1 63-207, substitution of proline by threonine at amino acid position 131, biotin on the N-terminal BirA tag (enzymatic, BirA ligase)); assay: SPR; KD1 of bivalent fit, multi-cycle kinetics
T2 sequence: T1 chain with P69T

[3] = target: soluble recombinant NKp65 ectodomain with proline at position 131 (NKp65-Pro131) (human) (UniProt D3W0D1); assay: SPR; single-cycle kinetics, Biacore X100; 73.4 ± 12.4 RU biotinylated NKp65 immobilised on a streptavidin chip (Sensor Chip SA), pulsed 120 s with sKACL 0.247-20 nM, flow 30 µl/min, final dissociation 600 s; bivalent binding model
[4] = target: soluble recombinant NKp65 ectodomain with threonine at position 131 (NKp65-Thr131) (human) (UniProt D3W0D1); assay: as above
[5] = target: soluble recombinant NKp65 ectodomain with proline at position 131 (NKp65-Pro131) (human) (UniProt D3W0D1); assay: SPR; mean of KD1 (bivalent model) from at least three measurements, protein produced independently twice, 2 different chip lots; biotinylated NKp65 immobilised on a streptavidin chip, sKACL as analyte; which runs were pooled is not told
[6] = target: soluble recombinant NKp65 ectodomain with threonine at position 131 (NKp65-Thr131) (human) (UniProt D3W0D1); assay: as above

B1: recombinant KACL ectodomain (sKACL) (ligand)
chain: WSKHAKPVACSGDWLGVRDKCFYFSDDTRNWTASKIFCSLQKAELAQIDTQEDMEFLKRYAGTDMHWIGLSRKQGDSWKWTNGTTFNGWFEIIGNGSFAFLSADGVHSSRGFIDIKWICSKPKYFL
Binder B1 has a Kd [1] of 13.6 nM, a Kd [2] of 57.1 nM and a Kd [3] of 2.6 nM. It also gave a Kd [4] of 20.3 nM, a KD1 (bivalent fit) [5] of 8.2 nM and a KD1 (bivalent fit) [6] of 35 nM.
